Test results reported in the RNAGym collection of RNA variant scans (doi:10.7554/elife.90254).

B1: LINE1-full (parent)
chain: UACGUAGGUGGUUUUCCCCUGAUAGUGCUAAGGGGGCCUGGAAGUUUGGACUGGGCAGAGCUCAACACAGCGUGGCAAAGUGGCUGUGGCUAGACUGCCUCUCUGGAUUCCUCGUCACUCAGCAGGGCAUCUCUGAGAGAAAUGCC

Variants of: B1
Assay: self-cleavage, relative activity (ratio to wild type); higher = more cleavage; in vitro, sequencing; the parent is a self-cleaving ribozyme

Variant | self-cleavage
U39C U130G | 1.75
U12G U29C | 1.02
G8C U46C | 1.13
A69U A121U | 0.05
A77G U112A | 2.32
G33U A136U | 1.27
U14C U47G | 1.4
U45C U102C | 1.55
U12C U73C | 1.65
A22G A78G | 0.94
A69G A121G | 0.6
U96C C111U | 0.12
G36U A140G | 1.18
G33U U39C | 1.16
A50G G144A | 1.46
A64U U85A | 0.06
A69G A140G | 0.36
U87A U112A | 0.07
A57G G139A | 0.75
G21A A65C | 0.02
U96G A136G | 0.13
A6G C98U | 0.42
C38A A50G | 0.51
U20G U85G | 0.1

Variant | self-cleavage
G83A U104C | 0.95
U12C U108C | 1.66
U20A U47A | 1.07
A6U U46A | 1.07
C61U U85A | 0.03
U13C G135A | 0.75
G10A A50U | 1.32
U26A A92U | 0.61
U5A A138G | 0.75
A138G U143G | 1.34
G114A A136U | 2.15
A92G U96A | 0.13
U26A G72U | 0.77
A30G A69U | 0.19
A57C U104A | 0.18
A117G A121C | 1.78
A64G U87G | 0
A64G U87A | 0.07
A50G A67C | 0
G40U U100C | 0.46
U73C A94G | 0.37
U81A U85A | 0.09
G8C A142G | 1.21
U85C G86U | 0.07

Variant | self-cleavage
U12C A65G | 0.15
U52A U62C | 0.04
U13A U115G | 1.29
U26C A42G | 1.06
C76U A140U | 2.07
U46A U73A | 1.35
G35A A42G | 1.17
G4A A64U | 0.72
U100C U104C | 2.14
U100C U104A | 1.37
U47C A129G | 1.49
G48A C63U | 0.36
C66U A140G | 0.04
G8C G75A | 1.2
G127A G139C | 1.41
U85G A124G | 0.32
G10A C90U | 0.06
A107C U143A | 1.79
U9C A94C | 0.11
A43G C116U | 1.22
U134C | 1.18
C101A U132C | 1.39
U81C U85A | 0.16
C68U G88A | 0.05

Variant | self-cleavage
U109C C116U | 1.5
U109C U119C | 1.61
C51U U132C | 0.69
U5A U39A | 0.8
A94G U109C | 0.07
G21A A57C | 0.09
U91C A107G | 0.73
A77U U96A | 0.06
C61U A65G | 0.06
U87C C99U | 0.13
C3U U14A | 0.24
U5C U81C | 0.8
G21A A141G | 1.16
A42U A77U | 0.83
U9G A42G | 1.4
A59G A94C | 0.29
C84U A138G | 0.13
C37U U143C | 0.84
C38U A140G | 1.24
U12A A79G | 1.13
U23A A107U | 1.1
U73C U104A | 1.93
G27A U85C | 0.13
C95A A142G | 0.08

Variant | self-cleavage
G75A U100C | 1.5
U85C U91A | 0.14
A22G A136C | 1.49
U39A C133U | 1.41
U9A U108C | 0.9
U5C C111U | 0.85
A6U A24G | 1.13
U29C U132A | 1.47
G32A A107G | 1.09
U15C U62A | 0.07
U1C G83U | 0.25
C128U A138G | 1.44
U108C A136G | 1.83
G34U A94G | 0.26
A77G U100C | 2.88
U46C C145U | 1.58
A6U U119C | 0.75
C37G U132C | 0.94
U52G C118U | 2.3
G125A A140G | 1.32
G60A G139U | 0.03
U26A C38A | 0.73
U12C A140U | 1.24
C66U U102A | 0.06

Variant | self-cleavage
G89A A117G | 0.05
C61U U104A | 0.02
U73A U119A | 1.59
U5A U96C | 0.45
U46C C76U | 2.44
G54U A78G | 0.44
C90U A117G | 0.06
U39A G48A | 1.22
A79G A141G | 1.35
C51U U134C | 1.74
A79U A129G | 2.13
A67G A124U | 0.49
U39C U100G | 0.59
A24G A78G | 1.19
U96C A136G | 0.15
U96C A136U | 0.15
U12C A22G | 1.64
U13A U29A | 0.42
U39G A136G | 1.65
U14C U26A | 0.95
U15A A94G | 0.19
U20C C118U | 1.2
A31C U134C | 1
U45C U73C | 1.92

Variant | self-cleavage
U85C U102G | 0.22
U62C A117G | 0.1
A30G U102C | 1.15
A117C A129U | 1
G33C U115C | 2.26
U14C A22U | 2.36
A92G G126A | 0.13
U26C A77U | 1.55
G53U U143C | 1.14
U13A A64G | 0.12
A64G A124U | 0.29
U109C U132A | 1.14
G54A U143A | 0.45
U13C A138C | 1.13
C51U U81C | 1.57
U20A C51A | 0.82
A24G U108C | 1.68
U52C A140U | 1.15
U132C A138U | 1.48
C37A G40U | 1.04
U85C C101A | 0.12
U1G U13G | 1.14
U26C A69C | 0.08
